Consider 2 molecules from paper PMC4795942 (Protein Engineering, Design and Selection, 2016).

Changes are numbered by the printed parent chain. Names and notes keep the numbering of the source.

For this test, the target named is biotinylated MmQSOX1Trx with a carboxy-terminal AviTag (Mus musculus, UniProt Q8BND5, biotin (on the AviTag)). The test is described as follows: flow cytometry on cells.

B1: scFv492.1 template c with H49S S50M Y52Q (top binder of the CDR L2 library) displayed on yeast (scFv, V domains shown)
VH: QVQLKQSGPGLVAPSQSLSITCTVSGFSLTGYGVNWVRQSPGKGLEWLGMIWGDGRTEYKSALKSRLSITKDNSKSQVFLKMNSLQTDDTARYFCASDSKDPGSFAYWGQGTLVTVSA
VL: DVVMTQTHKFMSTSVGDRVSITCKASQDVSTAVAWYQQKSGQSPKLLISMASQRYTGVPDRFTGSGSGTDFTFTISSVQAEDLAVYYCQQHYAIPLTFGAGTKLELK
Consider B1, for which the binding result is “binds”.

B2: scFv492.1 S93A Y99S Y100K G101D S102P D58E T31G H49S S50M Y52Q (mutant d) displayed on yeast (scFv, V domains shown)
VH: B1 VH
VL: B1 VL with T31G
On to B2, for which the binding result is on record as “binds”.
